The values below are quoted from earlier work in paper PMC5218898.

pKd: −log10 of the molar value.

One series concerns the target EnvZ (Escherichia coli) (UniProt P0AEJ4).
A further series concerns the target RstB (Escherichia coli) (UniProt P18392).

With EnvZ (from UniProt P0AEJ4), the negative-log Kd (pKd) (usually the Kd on a negative log10 scale, so that one unit is a factor of ten) with EnvZ (Escherichia coli) is 6.52.

Regarding RstB (from UniProt P18392), the pKd with RstB (Escherichia coli) was 6.52.
